Measured values reported in patent publication US6713265 (SYNAPTIC PHARMACEUTICAL, dated 2004).
Read-outs that look alike come from different tables or passages of the source. Values belong to the binder of their own block, whether it stands above or below them. Ends that are not written are not given here.

Columns and labels:
[1] = biological target: T1, rat hypothalamic Y5 receptor (rat, UniProt Q63634 1-445); experiment: cell-based or functional assay
T1 sequence: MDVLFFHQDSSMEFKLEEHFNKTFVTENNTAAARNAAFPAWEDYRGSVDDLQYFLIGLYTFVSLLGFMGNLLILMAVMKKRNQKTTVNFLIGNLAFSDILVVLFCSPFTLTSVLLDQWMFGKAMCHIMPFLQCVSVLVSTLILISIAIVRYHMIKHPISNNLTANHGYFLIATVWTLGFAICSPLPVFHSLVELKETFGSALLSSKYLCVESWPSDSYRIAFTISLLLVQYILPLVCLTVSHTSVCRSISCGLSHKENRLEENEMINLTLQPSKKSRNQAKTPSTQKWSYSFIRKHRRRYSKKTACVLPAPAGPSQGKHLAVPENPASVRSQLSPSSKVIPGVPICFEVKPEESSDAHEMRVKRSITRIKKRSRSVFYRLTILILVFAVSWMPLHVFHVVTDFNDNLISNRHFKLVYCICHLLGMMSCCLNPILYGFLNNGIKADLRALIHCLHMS

[2] = biological target: T1, rat hypothalamic Y5 receptor; experiment: 125I-PYY displacement, COS-7 membranes
[3] = biological target: T2, rat Y1 receptor (rat, UniProt P21555 1-382); experiment: 125I-PYY displacement, COS-7 membranes
T2 construct: whole, on cells; also called rY1
T2 sequence (looked up): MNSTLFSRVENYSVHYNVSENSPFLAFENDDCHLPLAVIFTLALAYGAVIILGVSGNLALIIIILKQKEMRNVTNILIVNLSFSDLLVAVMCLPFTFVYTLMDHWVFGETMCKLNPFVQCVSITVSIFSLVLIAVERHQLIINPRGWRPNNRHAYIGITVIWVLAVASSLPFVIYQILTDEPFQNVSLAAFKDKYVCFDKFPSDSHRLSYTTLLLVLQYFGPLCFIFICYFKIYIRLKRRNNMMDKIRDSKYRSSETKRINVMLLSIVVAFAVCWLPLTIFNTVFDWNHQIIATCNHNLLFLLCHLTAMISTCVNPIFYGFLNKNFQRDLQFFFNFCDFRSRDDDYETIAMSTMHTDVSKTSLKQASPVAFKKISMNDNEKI

[4] = biological target: T3, rat Y4 receptor (rat, UniProt Q63447 1-375); experiment: 125I-PYY displacement, COS-7 membranes
T3 construct: whole, on cells; also called rY4

[5] = biological target: T4, human Y5 receptor (human, UniProt Q15761 1-445); experiment: 125I-PYY3-36 displacement, LM(tk-) membranes
T4 construct: also called CG-19; hY5
T4 sequence: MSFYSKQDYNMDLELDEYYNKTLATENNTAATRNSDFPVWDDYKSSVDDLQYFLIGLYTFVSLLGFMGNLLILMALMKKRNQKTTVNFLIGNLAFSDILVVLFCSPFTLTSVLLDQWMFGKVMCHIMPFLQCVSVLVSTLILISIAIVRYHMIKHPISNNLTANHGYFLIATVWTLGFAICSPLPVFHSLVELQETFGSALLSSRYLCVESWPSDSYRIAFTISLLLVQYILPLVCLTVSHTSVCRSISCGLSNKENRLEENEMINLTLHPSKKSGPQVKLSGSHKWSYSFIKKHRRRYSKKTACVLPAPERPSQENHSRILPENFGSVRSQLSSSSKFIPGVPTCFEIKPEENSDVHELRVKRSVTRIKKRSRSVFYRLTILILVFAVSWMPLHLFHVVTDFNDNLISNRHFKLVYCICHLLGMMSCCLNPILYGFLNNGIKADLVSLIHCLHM

[6] = biological target: T5, rat Y2 receptor (rat, UniProt Q9ERC0 1-381); experiment: 125I-PYY displacement, COS-7 membranes
T5 construct: whole, on cells; also called rY2
T5 sequence: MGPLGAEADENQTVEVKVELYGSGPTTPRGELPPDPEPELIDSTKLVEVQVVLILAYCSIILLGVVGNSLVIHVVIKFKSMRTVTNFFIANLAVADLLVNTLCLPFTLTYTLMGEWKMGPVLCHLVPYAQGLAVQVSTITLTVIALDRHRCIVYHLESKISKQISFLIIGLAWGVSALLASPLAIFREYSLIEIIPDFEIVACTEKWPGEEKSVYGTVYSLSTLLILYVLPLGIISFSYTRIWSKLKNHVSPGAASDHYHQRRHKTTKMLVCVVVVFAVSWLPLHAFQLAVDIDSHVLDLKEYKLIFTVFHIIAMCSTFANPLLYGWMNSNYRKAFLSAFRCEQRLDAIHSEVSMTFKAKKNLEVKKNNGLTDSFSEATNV

[7] = biological target: T6, canine Y5 receptor (canine, UniProt O62729 1-446); experiment: 125I-PYY displacement, COS-7 membranes
T6 construct: Transiently expressed in COS-7 cells; also called canine (beagle) Y5; BO11
T6 sequence: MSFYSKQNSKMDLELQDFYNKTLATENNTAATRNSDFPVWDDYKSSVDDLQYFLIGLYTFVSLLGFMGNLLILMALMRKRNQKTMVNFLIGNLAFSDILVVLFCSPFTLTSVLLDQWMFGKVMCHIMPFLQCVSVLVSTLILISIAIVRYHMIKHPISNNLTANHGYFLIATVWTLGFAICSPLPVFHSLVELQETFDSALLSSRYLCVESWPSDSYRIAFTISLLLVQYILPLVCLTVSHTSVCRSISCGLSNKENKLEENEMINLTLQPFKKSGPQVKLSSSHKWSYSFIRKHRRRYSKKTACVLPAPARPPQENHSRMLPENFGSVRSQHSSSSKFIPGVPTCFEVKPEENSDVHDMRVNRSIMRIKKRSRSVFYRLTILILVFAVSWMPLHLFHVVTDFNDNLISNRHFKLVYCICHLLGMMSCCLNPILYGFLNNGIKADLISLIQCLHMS

[8] = biological target: T3, rat Y4 receptor; experiment: 125I-PYY displacement, COS-7 membranes; remark: listed apart in the source
[9] = biological target: T1, rat hypothalamic Y5 receptor; experiment: 125I-PYY displacement, COS-7 membranes; remark: listed apart in the source
[10] = biological target: T1, rat hypothalamic Y5 receptor; experiment: 125I-PYY displacement, COS-7 membranes; remark: listed apart in the source
[11] = biological target: T6, canine Y5 receptor; experiment: 125I-PYY displacement, COS-7 membranes; remark: listed apart in the source
[12] = biological target: T4, human Y5 receptor; experiment: cell-based or functional assay
[13] = biological target: T4, human Y5 receptor; experiment: 125I-PYY displacement, COS-7 membranes
[14] = biological target: T4, human Y5 receptor; experiment: 125I-PYY displacement, LM(tk-) membranes
[15] = biological target: T7, human Y4 receptor (human, UniProt P50391 1-375); experiment: 125I-PYY displacement, COS-7 membranes
T7 construct: whole, on cells

[16] = biological target: T4, human Y5 receptor; experiment: 125I-PYY displacement, COS-7 membranes; remark: listed apart in the source
[17] = biological target: T7, human Y4 receptor; experiment: 125I-PYY displacement, COS-7 membranes; remark: listed apart in the source

T3 sequence (Q63447 whole entry): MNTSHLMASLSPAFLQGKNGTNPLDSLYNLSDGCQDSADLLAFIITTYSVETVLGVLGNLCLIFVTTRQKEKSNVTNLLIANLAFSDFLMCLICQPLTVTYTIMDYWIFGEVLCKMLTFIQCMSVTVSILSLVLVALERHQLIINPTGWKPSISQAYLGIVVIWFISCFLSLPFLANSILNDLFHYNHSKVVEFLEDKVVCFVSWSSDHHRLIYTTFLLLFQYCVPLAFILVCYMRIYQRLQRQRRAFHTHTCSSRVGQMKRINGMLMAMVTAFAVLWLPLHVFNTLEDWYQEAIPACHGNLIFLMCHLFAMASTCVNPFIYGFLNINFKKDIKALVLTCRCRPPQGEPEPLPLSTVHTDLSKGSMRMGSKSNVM
T7 sequence (P50391 whole entry): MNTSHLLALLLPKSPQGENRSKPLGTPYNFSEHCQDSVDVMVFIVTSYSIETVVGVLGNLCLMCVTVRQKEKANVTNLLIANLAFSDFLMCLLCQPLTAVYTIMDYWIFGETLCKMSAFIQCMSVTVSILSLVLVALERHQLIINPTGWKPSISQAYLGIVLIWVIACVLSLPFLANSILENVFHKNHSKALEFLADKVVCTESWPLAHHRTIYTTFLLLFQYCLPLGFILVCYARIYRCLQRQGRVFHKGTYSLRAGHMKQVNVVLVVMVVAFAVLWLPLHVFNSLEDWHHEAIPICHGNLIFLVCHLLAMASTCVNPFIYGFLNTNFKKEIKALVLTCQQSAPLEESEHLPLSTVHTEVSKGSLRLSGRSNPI

EC50, inhibition of forskolin-stimulated cAMP accumulation, 293 cells [1]: 13000 nM | Ki [2]: 5500 nM | Ki [3]: 45000 nM
Binder: FLRF (C-terminal amide) [FLRF-amide]

Ki [4]: 26 nM | Ki [5]: 41000 nM
B1: human PP31-36 (peptide, UniProt P01298 60-65, looked up)
peptide: LTRPRY
notes: range 60-65; Range counted on the mature peptide

EC50, inhibition of forskolin-stimulated cAMP accumulation, 293 cells [1]: 5.7 nM | Ki [2]: 8.4 nM | Ki [3]: 120 nM | Ki [10]: 8.4 nM | Ki [13]: 1.6 nM | Ki [11]: 10 nM | Ki [14]: 7.9 nM | Ki [5]: 5 nM
Binder: APLEPEYPGDNATPEQMAQYAAELRRYINMLTRPRY (peptide, UniProt P01302 30-65, looked up, mature; also called PP, bovine) [bovine PP]

Second part, the binder before the results:

B2: porcine NPY22-36 (peptide, UniProt P01304 31-45, looked up)
peptide: SALRHYINLITRQRY
notes: range 22-36; Range counted on the mature peptide
Ki [6]: 54 nM

B3: human PP (peptide, UniProt P01298 30-65, looked up)
peptide: APLEPVYPGDNATPEQMAQYAADLRRYINMLTRPRY
notes: mature; also called PP, human; human pancreatic polypeptide
Ki [7]: < 10 nM | Ki [8]: < 0.2 nM | Ki [9]: 5 nM | Ki [2]: 5 nM | Ki [4]: 0.04 nM | Ki [10]: 5 nM | Ki [11]: 6.3 nM

Binder: APLEPVYPGDNATPEQMAQYAADLRRYINMITRQRY (peptide, UniProt P01298 30-65, looked up, ends and bridges not checked, mature) [human [Ile^31, Gln^34]PP]
EC50, inhibition of forskolin-stimulated cAMP accumulation, LM(tk-) cells [12]: 5.6 nM | Ki [13]: 2 nM

B4: human PP13-36 (peptide, UniProt P01298 42-65, looked up)
peptide: TPEQMAQYAADLRRYINMLTRPRY
notes: range 13-36; Range counted on the mature peptide
Ki [15]: 39 nM | Ki [2]: 84 nM | Ki [10]: 290 nM | Ki [13]: 720 nM | Ki [16]: 720 nM | Ki [17]: 39 nM
